According to US20210393689A1 (JUNO THERAPEUTICS, published 2021):

T1: CD86 (human, UniProt P42081)
T1 construct: expressed on the surface of HEK293 cells in a cell microarray spot; target of the positive control
T1 sequence (single chain, looked up): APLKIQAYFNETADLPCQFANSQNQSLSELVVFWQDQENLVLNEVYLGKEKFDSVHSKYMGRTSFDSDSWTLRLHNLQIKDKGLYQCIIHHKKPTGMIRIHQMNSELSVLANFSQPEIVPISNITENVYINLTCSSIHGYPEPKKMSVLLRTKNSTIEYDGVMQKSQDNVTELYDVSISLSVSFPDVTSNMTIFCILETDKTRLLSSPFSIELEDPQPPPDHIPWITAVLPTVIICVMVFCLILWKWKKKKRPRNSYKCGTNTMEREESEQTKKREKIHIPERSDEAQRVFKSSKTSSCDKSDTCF

T2: SLC38A2 (human, UniProt Q96QD8)
T2 construct: expressed on the surface of HEK293 cells in a cell microarray spot
T2 sequence (single chain, looked up): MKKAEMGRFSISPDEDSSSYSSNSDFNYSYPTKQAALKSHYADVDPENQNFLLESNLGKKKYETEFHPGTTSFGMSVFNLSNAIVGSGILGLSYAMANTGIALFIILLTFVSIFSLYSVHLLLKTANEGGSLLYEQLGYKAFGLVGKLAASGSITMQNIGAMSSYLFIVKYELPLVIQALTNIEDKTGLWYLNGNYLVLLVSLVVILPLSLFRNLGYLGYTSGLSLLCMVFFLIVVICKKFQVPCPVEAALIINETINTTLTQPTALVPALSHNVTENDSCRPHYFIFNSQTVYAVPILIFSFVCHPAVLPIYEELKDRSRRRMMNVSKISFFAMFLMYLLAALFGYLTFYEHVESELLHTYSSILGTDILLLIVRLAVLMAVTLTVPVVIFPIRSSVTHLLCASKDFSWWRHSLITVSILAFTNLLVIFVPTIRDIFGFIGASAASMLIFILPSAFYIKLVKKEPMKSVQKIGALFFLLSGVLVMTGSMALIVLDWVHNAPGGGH

T3: murine GPRC5D (murine, UniProt Q9JIL6 1-344)
T3 construct: whole, on cells; also called mGPRC5D; mouse GPRC5D
T3 sequence (looked up): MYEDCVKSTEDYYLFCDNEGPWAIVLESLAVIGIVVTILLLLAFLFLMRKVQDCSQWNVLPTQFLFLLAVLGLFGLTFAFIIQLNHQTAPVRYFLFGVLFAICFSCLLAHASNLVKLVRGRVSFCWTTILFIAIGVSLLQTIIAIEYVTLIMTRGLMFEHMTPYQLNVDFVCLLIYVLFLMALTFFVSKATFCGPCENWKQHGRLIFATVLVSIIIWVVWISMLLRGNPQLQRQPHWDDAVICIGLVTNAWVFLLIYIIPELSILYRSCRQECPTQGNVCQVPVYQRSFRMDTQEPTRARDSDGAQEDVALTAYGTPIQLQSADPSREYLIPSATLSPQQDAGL

B1: anti-GPRC5D-203 VL/VH scFv (SEQ ID NO: 8) fused to an mIgG2a Fc (Fc fusion, not shown: a dimerising Fc or GST; small tags and cut ends)
scFv: SSELTQDPAVSVALGQTVRITCQGDSLRSYYASWYQQKPGQAPVLVIYGKNNRPSGIPDRFSGSSSGNTASLTITGAQAEDEADYYCNSRDSSGNPPVVFGGGTKLTVLGSRGGGGSGGGGSGGGGSLEMAQVQLVESGGGLVHPGGSLRLSCAASGFTFRSHSMNWVRQAPGKGLEWVSSISSDSTYTYYADSVKGRFTISRDNAKNSLYLQMNSLRAEDTAVYYCARSGGQWKYYDYWGQGTLVTVSS
notes: also called scFv-Fc
B2: GPRC5D-203 VL/VH - long (anti-GPRC5D CAR: GPRC5D-203 VL/VH scFv, long spacer, CD28 transmembrane domain, 4-1BB and CD3zeta signaling domains) (other)
chain: SSELTQDPAVSVALGQTVRITCQGDSLRSYYASWYQQKPGQAPVLVIYGKNNRPSGIPDRFSGSSSGNTASLTITGAQAEDEADYYCNSRDSSGNPPVVFGGGTKLTVLGSRGGGGSGGGGSGGGGSLEMAQVQLVESGGGLVHPGGSLRLSCAASGFTFRSHSMNWVRQAPGKGLEWVSSISSDSTYTYYADSVKGRFTISRDNAKNSLYLQMNSLRAEDTAVYYCARSGGQWKYYDYWGQGTLVTVSSESKYGPPCPPCPAPPVAGPSVFLFPPKPKDTLMISRTPEVTCVVVDVSQEDPEVQFNWYVDGVEVHNAKTKPREEQFQSTYRVVSVLTVLHQDWLNGKEYKCKVSNKGLPSSIEKTISKAKGQPREPQVYTLPPSQEEMTKNQVSLTCLVKGFYPSDIAVEWESNGQPENNYKTTPPVLDSDGSFFLYSRLTVDKSRWQEGNVFSCSVMHEALHNHYTQKSLSLSLGKMFWVLVVVGGVLACYSLLVTVAFIIFWVKRGRKKLLYIFKQPFMRPVQTTQEEDGCSCRFPEEEEGGCELRVKFSRSADAPAYQQGQNQLYNELNLGRREEYDVLDKRRGRDPEMGGKPRRKNPQEGLYNELQKDKMAEAYSEIGMKGERRRGKGHDGLYQGLSTATKDTYDALHMQALPPR
notes: Chimeric antigen receptor on the surface of Jurkat Nur77-RFP reporter cells or primary T cells; signal peptide left out; In the reporter constructs a T2A-GFP follows the CAR, so T2A residues may remain at the C-terminus

Legend:
CD86 = molecular target: T1, CD86; assay: cell microarray of HEK293 cells expressing the indicated surface protein, probed with scFv-mIgG2a Fc
Method: (§1) Cell microarrays were assessed for binding by automated fluorescent microscopy with a fluorescently labeled anti-mIgG2a secondary antibody.

SLC38A2 = molecular target: T2, SLC38A2; assay: as above
Method: as §1

EGFR = molecular target: T4, EGFR (human, UniProt P00533); assay: as above
T4 construct: expressed on the surface of HEK293 cells in a cell microarray spot
Method: as §1

murine GPRC5D = molecular target: T3, murine GPRC5D; assay: Jurkat Nur77-RFP reporter activation after 1:1 co-culture with K562 cells expressing mGPRC5D (indirect read-out)
Method: K562 cells were transduced to express human (hGPRC5D), cGPRC5D or mGPRC5D. The Jurkat Nur77-RFP activation reporter line described above was transduced with polynucleotides constructs encoding CARs described in Example 3. […] Reporter cells were also incubated with parental K562 cells as a negative control.

Row | Binder | binding result (CD86) | binding result (SLC38A2) | binding result (EGFR) | binding result (murine GPRC5D)
1 | B1 | no binding | no binding | no binding | 
2 | B2 |  |  |  | no binding
